The results in this text go back to patent US20230210927A1.

In this assay the target is E1B55K protein (adenovirus early region 1B-55 kDa) (adenovirus type 5) (UniProt P03243). The experiment in a line: cell-based or functional assay.

A value given as a limit tells only on which side of the number the result lay.

Sequence of UniProt P03243 (P03243 whole entry): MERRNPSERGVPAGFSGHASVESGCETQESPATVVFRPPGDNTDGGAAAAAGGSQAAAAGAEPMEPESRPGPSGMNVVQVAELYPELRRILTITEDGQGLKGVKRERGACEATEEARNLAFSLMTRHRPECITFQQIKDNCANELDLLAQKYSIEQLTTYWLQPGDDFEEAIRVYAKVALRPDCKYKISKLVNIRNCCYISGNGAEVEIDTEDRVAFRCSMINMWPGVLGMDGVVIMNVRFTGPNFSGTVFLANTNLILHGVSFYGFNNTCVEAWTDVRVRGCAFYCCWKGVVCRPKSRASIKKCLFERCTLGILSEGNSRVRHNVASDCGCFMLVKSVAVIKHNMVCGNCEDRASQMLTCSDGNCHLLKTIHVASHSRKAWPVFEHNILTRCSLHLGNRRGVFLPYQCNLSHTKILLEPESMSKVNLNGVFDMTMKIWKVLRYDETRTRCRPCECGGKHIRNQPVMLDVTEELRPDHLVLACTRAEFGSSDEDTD

On to E4orf6 protein (adenovirus), for which the luminescence intensity due to luciferase activity (pGL2-p53 promoter, Dual-Luciferase Reporter Assay) in the MSC-TERT-tetoneE1B55K cell line with doxycycline; 4-fold increase with E1B55K alone was < 1.5 fold.
